Laboratory results reported in publication PMC4966845 (mAbs, 2016).
Numbering of substitutions follows the chain as printed. Like-named read-outs stand apart in the source and are kept apart here.

Tests used:
[1] = target: T1, human IGF-1R extracellular domain (Homo sapiens, UniProt P08069); assay: SPR
[2] = target: T2, IGF-1R on tumor cells (A549, TC-71) (Homo sapiens (A549, TC-71 cells), UniProt P08069); assay: flow cytometry on cells
[3] = target: T1, human IGF-1R extracellular domain; assay: SPR; remark: listed apart in the source
[4] = target: T2, IGF-1R on tumor cells (A549, TC-71); assay: flow cytometry on cells; remark: listed apart in the source

T2 sequence (P08069 31-1367): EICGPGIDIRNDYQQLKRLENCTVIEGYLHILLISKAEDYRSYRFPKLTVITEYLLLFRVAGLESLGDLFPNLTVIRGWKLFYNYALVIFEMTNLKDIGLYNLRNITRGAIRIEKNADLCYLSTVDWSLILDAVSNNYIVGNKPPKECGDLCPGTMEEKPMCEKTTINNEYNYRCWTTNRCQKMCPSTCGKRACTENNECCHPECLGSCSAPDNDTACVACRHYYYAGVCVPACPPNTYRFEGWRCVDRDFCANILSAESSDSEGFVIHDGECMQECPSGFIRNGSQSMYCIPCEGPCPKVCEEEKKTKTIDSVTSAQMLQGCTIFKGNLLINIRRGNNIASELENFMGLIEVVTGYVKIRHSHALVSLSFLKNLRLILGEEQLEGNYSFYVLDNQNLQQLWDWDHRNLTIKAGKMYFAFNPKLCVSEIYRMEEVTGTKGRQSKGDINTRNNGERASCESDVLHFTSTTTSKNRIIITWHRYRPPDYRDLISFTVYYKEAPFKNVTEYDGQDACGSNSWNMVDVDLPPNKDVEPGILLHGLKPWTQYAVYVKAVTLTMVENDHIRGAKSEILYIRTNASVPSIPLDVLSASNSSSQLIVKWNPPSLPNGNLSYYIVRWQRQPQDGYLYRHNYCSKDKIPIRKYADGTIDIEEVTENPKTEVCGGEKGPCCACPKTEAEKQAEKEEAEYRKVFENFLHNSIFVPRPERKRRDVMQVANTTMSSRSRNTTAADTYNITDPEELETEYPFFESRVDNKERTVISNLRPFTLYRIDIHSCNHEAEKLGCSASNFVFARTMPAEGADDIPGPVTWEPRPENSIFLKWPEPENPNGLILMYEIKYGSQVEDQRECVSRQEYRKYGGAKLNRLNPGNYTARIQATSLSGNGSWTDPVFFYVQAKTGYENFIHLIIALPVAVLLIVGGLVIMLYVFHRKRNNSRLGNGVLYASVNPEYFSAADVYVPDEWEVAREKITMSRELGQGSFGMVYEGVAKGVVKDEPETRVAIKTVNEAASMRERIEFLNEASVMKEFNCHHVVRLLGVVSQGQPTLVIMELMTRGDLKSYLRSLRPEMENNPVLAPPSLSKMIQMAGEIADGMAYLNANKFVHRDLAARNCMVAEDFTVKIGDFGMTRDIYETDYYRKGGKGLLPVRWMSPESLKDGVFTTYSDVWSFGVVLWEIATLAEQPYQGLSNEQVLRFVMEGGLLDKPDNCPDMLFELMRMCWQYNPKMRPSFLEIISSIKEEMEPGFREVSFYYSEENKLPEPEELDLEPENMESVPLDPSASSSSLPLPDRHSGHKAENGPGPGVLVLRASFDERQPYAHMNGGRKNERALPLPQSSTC
T1 sequence (P08069 741-935): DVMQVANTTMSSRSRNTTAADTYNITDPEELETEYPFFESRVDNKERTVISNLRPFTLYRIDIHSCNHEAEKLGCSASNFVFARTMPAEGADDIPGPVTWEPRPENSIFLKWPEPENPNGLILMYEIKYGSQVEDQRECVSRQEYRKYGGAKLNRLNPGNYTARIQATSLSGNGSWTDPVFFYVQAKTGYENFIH

B1: F13B5 Fab fragment (Fab, V domains shown)
VH: QVELVESGGGVVQPGRSQRLSCAASGFTFSSYGMHWVRQAPGKGLEWVAIIWFDGSSTYYADSVRGRFTISRDNSKNTLYLQMNSLRAEDTAVYFCARELGRRYFDLWGRGTLVSVSS
VL: EIVLTQSPATLSLSPGERATLSCRASQSVSSYLAWYQQKPGQAPRLLIYQASKRATGIPARFSGSGSGTDFTLTISSLEPEDFAVYYCQQRSKYPPWTFGQGTKVESK
Q: What does the source list for B1?
A: Kd [1]: 1.47 nM; koff [1]: 0.00025 s⁻¹; kon [1]: 170000 M⁻¹ s⁻¹

B2: R1507, bivalent monospecific anti-IGF-1R antibody (antibody, V domains shown)
VH: B1 VH
VL: B1 VL with Q50D, Y94W
Q: With B2 as the binder, how does the IC50 [2] read?
A: ~1 nM

Q: And the Kd [3]?
A: 5 nM

B3: R1507 Fab fragment (Fab, V domains shown)
VH: B1 VH
VL: B1 VL with Q50D, Y94W
Q: B3 was tested. Which Kd [1] did it give?
A: 18 nM

Q: And the koff [1]?
A: 0.00271 s⁻¹

Q: What about the kon [1] of the same binder?
A: 153000 M⁻¹ s⁻¹

Q: And the “fold reduction of binding against bivalent R1507” value [2]?
A: ~34 fold

Q: And the “fold reduction of binding against bivalent R1507” value [4]?
A: ~10 fold
